According to patent US6054163:

The substances below were run against piscicolin 126 (Carnobacterium piscicola JG126).
With Catalase (enzyme) the residual bacteriocin activity after enzyme treatment (% of original activity; bioassay with Listeria monocytogenes 4A) was 100%.
Lipase (enzyme) was tested, and the residual bacteriocin activity after enzyme treatment (% of original activity; bioassay with Listeria monocytogenes 4A) was 100%.
Lysozyme (enzyme) was tested, and the residual bacteriocin activity after enzyme treatment (% of original activity; bioassay with Listeria monocytogenes 4A) was 100%.
Pepsin (enzyme) showed a residual bacteriocin activity after enzyme treatment (% of original activity; bioassay with Listeria monocytogenes 4A) of 100%.
Protease I (enzyme) was tested, and the residual bacteriocin activity after enzyme treatment (% of original activity; bioassay with Listeria monocytogenes 4A) was 0%.
Protease XIV (enzyme) was tested, and the residual bacteriocin activity after enzyme treatment (% of original activity; bioassay with Listeria monocytogenes 4A) was 3%.
For Protease XXIII (enzyme), the residual bacteriocin activity after enzyme treatment (% of original activity; bioassay with Listeria monocytogenes 4A) was 0%.
For Trypsin (enzyme), the residual bacteriocin activity after enzyme treatment (% of original activity; bioassay with Listeria monocytogenes 4A) was 6%.
α-Chymotrypsin (enzyme) gave a residual bacteriocin activity after enzyme treatment (% of original activity; bioassay with Listeria monocytogenes 4A) of 0%.
In the case of β-Chymotrypsin (enzyme), the residual bacteriocin activity after enzyme treatment (% of original activity; bioassay with Listeria monocytogenes 4A) is reported as 0%.
